From the supplement of paper PMC10567573

B1: TLE6 (parent)
chain: FWHDTLTEQLWRIFAGVHDEKAKP
B2: TRIM15 (parent)
chain: QSSGKILLCPLCQEEEQAETPMAP

Variants of: B1
Assay: protein stability index of a GFP-peptide fusion (GPS, HEK-293T) (PSI 1-6); higher = more stable
Details: c terminus: a fixed tail appended
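Note: lentivirally expressed fusions sorted by FACS into six bins by GFP to DsRed ratio, PSI derived from sequencing read proportions per bin multiplied by bin number.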

Point of comparison: P24D, protein stability index 1.65. Against it:
- A22W — lower, 1.38
- A22R — higher, 1.84
- A22M — higher, 2.03
- A22N — higher, 1.94
- A22S — higher, 2.06
- A22Y — lower, 1.37
- A22T — higher, 2.15
- A22Q — lower, 1.53
- A22P — higher, 2.11
- A22V — higher, 1.8
- P24L — lower, 1.5
- P24E — higher, 2.03
- P24H — higher, 2.1
- P24G — higher, 1.66
- P24C — higher, 2.95
- P24V — higher, 2.97
- P24N — higher, 2.68
- P24Y — lower, 1.58
- P24I — higher, 3.17
- P24A — higher, 1.7
- P24Q — higher, 1.9
- P24R — higher, 1.69
- P24K — higher, 1.78
- P24S — higher, 2.07
- P24F — higher, 2.44
- P24T — higher, 1.86
- P24M — lower, 1.64
- P24W — higher, 1.92
- K23Y — higher, 1.92
- K23T — higher, 2.3
- K23F — higher, 3.09
- K23V — higher, 2.71
- K23P — higher, 1.78
- K23I — lower, 1.64
- K23W — higher, 2.25
- K23L — higher, 1.89
- K23Q — higher, 1.83
- K23M — higher, 2.8
- K23E — the same, 1.65
- K23S — higher, 2.17
- K23A — higher, 1.78
- K23D — lower, 1.49
- K23C — higher, 2.13
- K23N — higher, 2.32
- K23R — lower, 1.52
- K23H — higher, 2.5
- K23G — lower, 1.35

Variants of: B2
Assay: as above
Details: c terminus: a fixed tail appended

Point of comparison: E14D, protein stability index 3.69. Against it:
- S3L — lower, 3.3
- S3H — lower, 2.99
- S3T — lower, 3.58
- S3Y — lower, 2.82
- S3N — lower, 3.62
- S3W — lower, 2.16
- S3Q — lower, 3.63
- S3R — higher, 3.73
- S3V — lower, 3.57
- S3C — lower, 2.33
- S3D — lower, 3.07
- S3E — higher, 3.79
- S3P — lower, 3.23
- S3G — lower, 3.34
- S3F — lower, 3
- S3M — lower, 3.24
- S3K — lower, 3.21
- S3I — lower, 3.31
- S3A — lower, 3.62
- I6P — higher, 4.11
- I6D — higher, 4.77
- I6N — higher, 4.13
- I6E — lower, 3.62
- I6R — lower, 3.41
- I6M — higher, 3.72
- I6Q — lower, 3.37
- I6A — higher, 4.26
- I6S — lower, 3.39
- I6L — higher, 3.79
- I6F — higher, 3.76
- I6H — lower, 3.15
- I6G — lower, 3.53
- I6K — higher, 4.23
- I6Y — higher, 4.04
- I6T — higher, 3.89
- I6C — higher, 3.94
- C9K — higher, 5.6
- C9S — higher, 5.41
- C9A — higher, 5.01
- C9P — higher, 5.54
- C9W — higher, 4.24
- C9H — higher, 5.15
- C9T — higher, 5.22
- C9I — higher, 3.84
- C9L — higher, 4
- C9M — higher, 4.5
- C9F — higher, 4.38
- C9Y — higher, 4.36
- C9Q — lower, 3.61
- C9R — higher, 5.71
- C9N — higher, 5.59
- S2Y — lower, 2.85
- S2L — lower, 2.67
- S2N — lower, 2.86
- S2D — higher, 3.78
- S2C — lower, 2.88
- S2A — lower, 3.52
- S2I — lower, 2.62
- S2T — lower, 3.34
- S2R — lower, 3.28
- S2K — lower, 3.47
- S2W — lower, 2.38
- S2M — lower, 2.79
- S2V — lower, 2.56
- S2E — higher, 4
- S2F — lower, 2.18
- S2H — lower, 3.32
- Q13M — lower, 2.84
- Q13A — lower, 2.77
- Q13H — lower, 2.95
- Q13C — lower, 2.79
- Q13R — lower, 2.69
- Q13T — lower, 2.69
- Q13N — lower, 3.65
- Q13Y — lower, 3.31
- Q13E — higher, 4.64
- Q13I — lower, 3.26
- Q13L — lower, 3.12
- Q13P — higher, 4.49
- Q13V — higher, 3.91
- Q13S — lower, 3.54
- Q13F — lower, 2.61
- Q13K — higher, 3.85
- Q13G — lower, 3.46
- Q13D — higher, 4.25
- Q13W — lower, 2.35
- G4M — lower, 3.3
- G4V — lower, 2.94
- G4Q — lower, 3.29
- G4Y — lower, 3.4
- G4F — lower, 2.49
- G4H — lower, 2.96
- G4L — lower, 2.93
- G4N — lower, 2.76
- G4K — higher, 4.13
- G4S — lower, 2.86
- G4W — lower, 2.21
- G4R — higher, 3.72
- G4A — lower, 3.07
- G4D — higher, 4.24
- G4E — higher, 3.72
- G4I — lower, 3.34
- G4P — lower, 3.24
- G4T — lower, 3.66
- G4C — higher, 4.14
- E14Y — lower, 2.5
- E14N — lower, 3.32
- E14A — lower, 2.43
- E14Q — lower, 2.55
- E14R — lower, 3.3
- E14G — lower, 3.64
- E14P — lower, 3.39
- E14I — lower, 2.54
- E14V — lower, 2.75
- E14W — lower, 1.73
- E14F — lower, 1.73
- E14M — lower, 2.14
- E14T — lower, 2.46
- E14C — lower, 2.55
- E14K — lower, 3.14
- E15H — lower, 2.98
- E15K — lower, 3.05
- E15P — lower, 2.84
- E15V — lower, 2.35
- E15Q — lower, 3.54
- E15R — lower, 1.81
- E15N — lower, 2.28
- E15M — lower, 2.25
- E15F — lower, 2
- E15C — lower, 2.49
- E15D — lower, 2.97
- E15L — lower, 2.5
- E15A — lower, 3.17
- E15S — lower, 2.75
- E15T — lower, 2.77
- E15Y — lower, 2.53
- E15W — lower, 1.65
- E15G — lower, 2.9
- P10F — lower, 2.13
- P10V — lower, 1.82
- P10A — lower, 3.35
- P10H — lower, 3.42
- P10N — higher, 4.4
- P10E — higher, 4.06
- P10M — lower, 2.75
- P10G — higher, 4.31
- P10C — higher, 3.77
- P10I — lower, 1.99
- P10Q — higher, 3.77
- P10S — lower, 3.56
- P10Y — lower, 2.71
- E16Q — lower, 1.72
- E16S — lower, 2.59
- E16P — lower, 3.28
- E16I — lower, 2.69
- E16V — lower, 2.01
- E16K — lower, 3.08
- E16G — lower, 2.78
- E16T — lower, 2.61
- E16C — lower, 2.55
- E16W — lower, 2.71
- E16M — lower, 2.34
- E16F — lower, 2.23
- E16N — lower, 3.1
- E16D — lower, 3.31
- E16Y — lower, 3.08
- E16L — lower, 2.06
- Q1W — lower, 3.08
- Q1G — higher, 3.8
- Q1T — lower, 3.16
- Q1S — lower, 3.28
- Q1P — lower, 2.73
- Q1F — lower, 1.4
- Q1I — lower, 3.27
- Q1V — lower, 2.87
- Q1M — lower, 2.63
- Q1Y — lower, 1.58
- Q1E — higher, 3.98
- Q1D — higher, 3.99
- Q1C — lower, 2.72
- Q1L — lower, 3.13
- Q1N — lower, 3.06
- Q1K — lower, 3.46
- Q1A — lower, 3.2
- Q1R — lower, 3.35
- C12L — higher, 4.18
- C12P — higher, 5.04
- C12A — higher, 4.22
- C12E — higher, 5.46
- C12F — higher, 4.81
- C12S — higher, 5.23
- C12M — higher, 4.86
- C12D — higher, 4.87
- C12T — higher, 5.43
- C12Q — higher, 5.09
- C12V — higher, 4.62
- C12H — higher, 4.66
- C12K — higher, 4.93
- C12W — higher, 3.75
- C12I — higher, 4.68
- C12Y — higher, 4.54
- C12N — higher, 4.99
- L11G — higher, 4.63
- L11I — higher, 3.94
- L11D — higher, 4.98
- L11R — higher, 4.3
- L11M — higher, 3.78
- L11S — higher, 4.7
- L11N — higher, 5.01
- L11H — lower, 3.68
- L11C — lower, 3.28
- L11E — higher, 4.72
- L11Y — lower, 3.01
- L11F — lower, 3.42
- L11P — higher, 5.27
- L11W — lower, 3.52
- L11T — higher, 4.81
- L11V — higher, 4.09
- L11Q — higher, 4.24
- L11K — higher, 4.54
- L7M — lower, 3.51
- L7Y — lower, 3.15
- L7S — lower, 3.39
- L7H — lower, 3.62
- L7T — lower, 3.31
- L7D — higher, 4.35
- L7N — higher, 4.21
- L7Q — higher, 3.94
- L7I — lower, 3.4
- L7C — higher, 3.77
- L7A — lower, 3.65
- L7V — lower, 3.48
- L7P — higher, 4.42
- L7W — lower, 3.29
- L7G — higher, 3.9
- L7K — higher, 4.51
- L7F — lower, 3.47
- L8C — lower, 3.46
- L8S — higher, 3.99
- L8Y — lower, 3.28
- L8G — higher, 4.08
- L8Q — higher, 4.23
- L8P — higher, 4.34
- L8M — higher, 3.79
- L8W — lower, 2.93
- L8A — higher, 4.32
- L8N — higher, 4.45
- L8T — lower, 3.48
- L8K — higher, 3.83
- L8D — higher, 4.91
- L8E — higher, 5.11
- L8H — higher, 3.96
- L8R — lower, 3.34
- K5V — lower, 2.85
- K5L — lower, 2.86
- K5A — lower, 3.27
- K5E — higher, 4.56
- K5H — lower, 3.17
- K5F — lower, 2.1
- K5C — lower, 3.54
- K5T — lower, 3.06
- K5Q — higher, 3.98
- K5N — lower, 3.46
- K5G — higher, 3.77
- K5R — lower, 3.22
- K5D — higher, 3.72
- K5M — lower, 2.41
- K5S — lower, 3.44
- K5P — lower, 3.65
- K5I — lower, 2.17
- K5W — lower, 2.45
- K5Y — lower, 2.36
- Q17I — lower, 2.88
- Q17E — lower, 2.95
- Q17M — lower, 3.02
- Q17F — lower, 2.55
- Q17K — lower, 3.29
- Q17R — lower, 2.76
- Q17C — lower, 2.23
- Q17A — lower, 2.98
- Q17N — lower, 3.49
- Q17G — higher, 3.74
- Q17H — lower, 3.05
- Q17D — lower, 3.38
- Q17P — higher, 4.21
